Laboratory results from IntAct's records for PubMed 7758105.

B1: Tumor necrosis factor receptor superfamily member 1A (Homo sapiens), P19438 (parent)
chain: MGLSTVPDLLLPLVLLELLVGIYPSGVIGLVPHLGDREKRDSVCPQGKYIHPQNNSICCTKCHKGTYLYNDCPGPGQDTDCRECESGSFTASENHLRHCLSCSKCRKEMGQVEISSCTVDRDTVCGCRKNQYRHYWSENLFQCFNCSLCLNGTVHLSCQEKQNTVCTCHAGFFLRENECVSCSNCKKSLECTKLCLPQIENVKGTEDSGTTVLLPLVIFFGLCLLSLLFIGLMYRYQRWKSKLYSIVCGKSTPEKEGELEGTTTKPLAPNPSFSPTPGFTPTLGFSPVPSSTFTSSSTYTPGDCPNFAAPRREVAPPYQGADPILATALASDPIPNPLQKWEDSAHKPQSLDTDDPATLYAVVENVPPLRWKEFVRRLGLSDHEIDRLELQNGRCLREAQYSMLATWRRRTPRREATLELLGRVLRDMDLLGCLEDIEEALCGPAALPPAPSLLR
partner: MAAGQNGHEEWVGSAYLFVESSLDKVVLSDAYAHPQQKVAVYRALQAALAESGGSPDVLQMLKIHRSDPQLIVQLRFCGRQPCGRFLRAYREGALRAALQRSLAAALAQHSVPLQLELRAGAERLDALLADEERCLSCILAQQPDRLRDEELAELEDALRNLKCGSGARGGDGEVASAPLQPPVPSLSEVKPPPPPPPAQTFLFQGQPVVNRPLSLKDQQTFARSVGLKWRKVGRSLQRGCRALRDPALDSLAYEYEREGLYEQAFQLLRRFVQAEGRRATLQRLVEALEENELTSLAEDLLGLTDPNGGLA

Variants of: B1
Conditions: with tradd_human TRADD

Row | effect of a mutation on the interaction | Variant
1 | decreasing interaction | K372A;F374A;R376A
